Literature values as cited in publication PMC5414288, “^99mTc-radiolabeled GE11-modified peptide for ovarian tumor targeting” (DARU Journal of Pharmaceutical Sciences, 2017).

Target: EGFR (Homo sapiens) (UniProt P00533)

GE11
Kd: 22 nM
